Several values for one entry are separate records, joined by “and”; a condition that tells them apart may be missing. Identical values can stand only once.

Results on 8 proteins are retold here after patent publication US20180362668.

In data set [1] the target is T1, VhH-Fc fusion protein chain B with T366S + L368A + Y407V + F405K + E357A. In words: non-reducing SDS-PAGE densitometry of Protein A-purified co-transfection product; chain A:chain B vectors 1:4.
For data set [2], the target named is T1, VhH-Fc fusion protein chain B with …. Nature of the data set: non-reducing SDS-PAGE densitometry of Protein A-purified co-transfection product; chain A:chain B vectors 4:1.
Data set [3] addresses Fc protein chain B with D356C + T366S + L368A + Y407V + F405K. Nature of the data set: non-reducing SDS-PAGE densitometry of Protein A-purified co-transfection product; chain A:chain B vectors 1:1.
Data set [4] has as its target Fc protein chain B with D356C + T366S + L368A + Y407V. In words: non-reducing SDS-PAGE of Protein A-purified co-transfection product; chain A:chain B vectors 1:4.
Data set [5] has the same target. In words: non-reducing SDS-PAGE of Protein A-purified co-transfection product; chain A:chain B vectors 4:1.
Data set [6] has the same target. In words: non-reducing SDS-PAGE densitometry of Protein A-purified co-transfection product; chain A:chain B vectors 1:1.
Data set [7] concerns the target T2, VhH-Fc fusion protein chain B with D356C + T366S + L368A + Y407V. In words: non-reducing SDS-PAGE densitometry of Protein A-purified co-transfection product; chain A:chain B vectors 1:4.
Data set [8] addresses T2, VhH-Fc fusion protein chain B with …. In words: non-reducing SDS-PAGE densitometry of Protein A-purified co-transfection product; chain A:chain B vectors 4:1.
Data set [9] deals with T3, VhH-Fc fusion protein chain B with T366S + L368G + Y407A + K409A. Nature of the data set: non-reducing SDS-PAGE densitometry of Protein A-purified co-transfection product; chain A:chain B vectors 1:4.
Data set [10] concerns the target T3, VhH-Fc fusion protein chain B with …. Nature of the data set: non-reducing SDS-PAGE densitometry of Protein A-purified co-transfection product; chain A:chain B vectors 4:1.
For data set [11], the target named is T4, VhH-Fc fusion protein chain B with T366S + L368A + Y407V + K409A + K392D. In words: non-reducing SDS-PAGE densitometry of Protein A-purified co-transfection product; chain A:chain B vectors 1:4.
Data set [12] deals with T4, VhH-Fc fusion protein chain B with …. In words: non-reducing SDS-PAGE densitometry of Protein A-purified co-transfection product; chain A:chain B vectors 4:1.
Data set [13] concerns the target T5, VhH-Fc fusion protein chain B with T366S + L368A + Y407V + K409A + E357A. In words: non-reducing SDS-PAGE densitometry of Protein A-purified co-transfection product; chain A:chain B vectors 1:4.
Data set [14] deals with T5, VhH-Fc fusion protein chain B with …. In words: non-reducing SDS-PAGE densitometry of Protein A-purified co-transfection product; chain A:chain B vectors 4:1.

B1: ScFv-Fc fusion protein chain A with T366W + K409A + Y349D + S354D (protein)
chain: EVQLLESGGGVVQPGRSLRLSCIASGFTFSSYPMTWVRQAPGKGLEWVASISYDGSYKYKADSMKGRLTISRDNSKNTLYLEMNSLTAEDTAVYYCARTAFFNAYDFWGQGTLVTVSSASTKGPSVGGGGSGGGGSEIVMTQSPATLSVSPGERATLSCRASQSVRSNLAWYQQKPGQAPRLLIYAASTRATGIPARFSGSGSGTEFTLTISSLQSEDFAVYYCQQYNEWFRTSGQGTKVEIKRDKTHTCPPCPAPELLGGPSVFLFPPKPKDTLMISRTPEVTCVVVDVSHENPEVKFNWYVDGVEVHNAKTKPREEQYNSTYRVVSVLTVLHQDWLNGKEYKCKVSNKALPAPIEKTISKAKGQPREPQVDTLPPDRDELTKNQVSLWCLVKGFYPSDIAVEWESNGQPENNYKTTPPVLDSDGSFFLYSALTVDKSRWQQGNVFSCSVMHEALHNHYTQKSLSLSPGK
B1: the ScFv-Fc/VhH-Fc heterodimer (%) in data set [1] came to 64%; in [2], 61%.

B2: ScFv-Fc fusion protein chain A with Y349C + T366W + K409A + L368E (protein)
chain: EVQLLESGGGVVQPGRSLRLSCIASGFTFSSYPMTWVRQAPGKGLEWVASISYDGSYKYKADSMKGRLTISRDNSKNTLYLEMNSLTAEDTAVYYCARTAFFNAYDFWGQGTLVTVSSASTKGPSVGGGGSGGGGSEIVMTQSPATLSVSPGERATLSCRASQSVRSNLAWYQQKPGQAPRLLIYAASTRATGIPARFSGSGSGTEFTLTISSLQSEDFAVYYCQQYNEWFRTSGQGTKVEIKRDKTHTCPPCPAPELLGGPSVFLFPPKPKDTLMISRTPEVTCVVVDVSHENPEVKFNWYVDGVEVHNAKTKPREEQYNSTYRVVSVLTVLHQDWLNGKEYKCKVSNKALPAPIEKTISKAKGQPREPQVCTLPPSRDELTKNQVSLWCEVKGFYPSDIAVEWESNGQPENNYKTTPPVLDSDGSFFLYSALTVDKSRWQQGNVFSCSVMHEALHNHYTQKSLSLSPGK
Consider B2, for which the ScFv-Fc/Fc heterodimer (%) in data set [3] came out at 30%.

B3: ScFv-Fc fusion protein chain A with Y349C + T366W + F405K (protein)
chain: EVQLLESGGGVVQPGRSLRLSCIASGFTFSSYPMTWVRQAPGKGLEWVASISYDGSYKYKADSMKGRLTISRDNSKNTLYLEMNSLTAEDTAVYYCARTAFFNAYDFWGQGTLVTVSSASTKGPSVGGGGSGGGGSEIVMTQSPATLSVSPGERATLSCRASQSVRSNLAWYQQKPGQAPRLLIYAASTRATGIPARFSGSGSGTEFTLTISSLQSEDFAVYYCQQYNEWFRTSGQGTKVEIKRDKTHTCPPCPAPELLGGPSVFLFPPKPKDTLMISRTPEVTCVVVDVSHENPEVKFNWYVDGVEVHNAKTKPREEQYNSTYRVVSVLTVLHQDWLNGKEYKCKVSNKALPAPIEKTISKAKGQPREPQVCTLPPSRDELTKNQVSLWCLVKGFYPSDIAVEWESNGQPENNYKTTPPVLDSDGSFKLYSKLTVDKSRWQQGNVFSCSVMHEALHNHYTQKSLSLSPGK
Regarding B3, the ScFv-Fc/Fc heterodimer (%) in data set [4] was 49%; in data set [5], 66%; in [6] it was 60% and 70%. Besides, the ScFv-Fc/VhH-Fc heterodimer (%) in data set [7] stood at 39%; in data set [8], 55%.

B4: ScFv-Fc fusion protein chain A with T366W + F405K (protein)
chain: EVQLLESGGGVVQPGRSLRLSCIASGFTFSSYPMTWVRQAPGKGLEWVASISYDGSYKYKADSMKGRLTISRDNSKNTLYLEMNSLTAEDTAVYYCARTAFFNAYDFWGQGTLVTVSSASTKGPSVGGGGSGGGGSEIVMTQSPATLSVSPGERATLSCRASQSVRSNLAWYQQKPGQAPRLLIYAASTRATGIPARFSGSGSGTEFTLTISSLQSEDFAVYYCQQYNEWFRTSGQGTKVEIKRDKTHTCPPCPAPELLGGPSVFLFPPKPKDTLMISRTPEVTCVVVDVSHENPEVKFNWYVDGVEVHNAKTKPREEQYNSTYRVVSVLTVLHQDWLNGKEYKCKVSNKALPAPIEKTISKAKGQPREPQVYTLPPSRDELTKNQVSLWCLVKGFYPSDIAVEWESNGQPENNYKTTPPVLDSDGSFKLYSKLTVDKSRWQQGNVFSCSVMHEALHNHYTQKSLSLSPGK
In the case of B4, the ScFv-Fc/VhH-Fc heterodimer (%) in [9] worked out at 93%; in data set [10], 77%.

B5: ScFv-Fc fusion protein chain A with Y349C + T366W (protein)
chain: EVQLLESGGGVVQPGRSLRLSCIASGFTFSSYPMTWVRQAPGKGLEWVASISYDGSYKYKADSMKGRLTISRDNSKNTLYLEMNSLTAEDTAVYYCARTAFFNAYDFWGQGTLVTVSSASTKGPSVGGGGSGGGGSEIVMTQSPATLSVSPGERATLSCRASQSVRSNLAWYQQKPGQAPRLLIYAASTRATGIPARFSGSGSGTEFTLTISSLQSEDFAVYYCQQYNEWFRTSGQGTKVEIKRDKTHTCPPCPAPELLGGPSVFLFPPKPKDTLMISRTPEVTCVVVDVSHENPEVKFNWYVDGVEVHNAKTKPREEQYNSTYRVVSVLTVLHQDWLNGKEYKCKVSNKALPAPIEKTISKAKGQPREPQVCTLPPSRDELTKNQVSLWCLVKGFYPSDIAVEWESNGQPENNYKTTPPVLDSDGSFFLYSKLTVDKSRWQQGNVFSCSVMHEALHNHYTQKSLSLSPGK
For B5, the ScFv-Fc/Fc heterodimer (%) in data set [4] worked out at 44%; in data set [5] it was 42%.

B6: ScFv-Fc fusion protein chain A with T366W + F405K + D399S (protein)
chain: EVQLLESGGGVVQPGRSLRLSCIASGFTFSSYPMTWVRQAPGKGLEWVASISYDGSYKYKADSMKGRLTISRDNSKNTLYLEMNSLTAEDTAVYYCARTAFFNAYDFWGQGTLVTVSSASTKGPSVGGGGSGGGGSEIVMTQSPATLSVSPGERATLSCRASQSVRSNLAWYQQKPGQAPRLLIYAASTRATGIPARFSGSGSGTEFTLTISSLQSEDFAVYYCQQYNEWFRTSGQGTKVEIKRDKTHTCPPCPAPELLGGPSVFLFPPKPKDTLMISRTPEVTCVVVDVSHENPEVKFNWYVDGVEVHNAKTKPREEQYNSTYRVVSVLTVLHQDWLNGKEYKCKVSNKALPAPIEKTISKAKGQPREPQVYTLPPSRDELTKNQVSLWCLVKGFYPSDIAVEWESNGQPENNYKTTPPVLSSDGSFKLYSKLTVDKSRWQQGNVFSCSVMHEALHNHYTQKSLSLSPGK
Turning to B6, the results for the ScFv-Fc/VhH-Fc heterodimer (%) in [11] and in data set [12] were 69% and 66%, respectively.

B7: ScFv-Fc fusion protein chain A with T366W + F405K + Y349D + S354D (protein)
chain: EVQLLESGGGVVQPGRSLRLSCIASGFTFSSYPMTWVRQAPGKGLEWVASISYDGSYKYKADSMKGRLTISRDNSKNTLYLEMNSLTAEDTAVYYCARTAFFNAYDFWGQGTLVTVSSASTKGPSVGGGGSGGGGSEIVMTQSPATLSVSPGERATLSCRASQSVRSNLAWYQQKPGQAPRLLIYAASTRATGIPARFSGSGSGTEFTLTISSLQSEDFAVYYCQQYNEWFRTSGQGTKVEIKRDKTHTCPPCPAPELLGGPSVFLFPPKPKDTLMISRTPEVTCVVVDVSHENPEVKFNWYVDGVEVHNAKTKPREEQYNSTYRVVSVLTVLHQDWLNGKEYKCKVSNKALPAPIEKTISKAKGQPREPQVDTLPPDRDELTKNQVSLWCLVKGFYPSDIAVEWESNGQPENNYKTTPPVLDSDGSFKLYSKLTVDKSRWQQGNVFSCSVMHEALHNHYTQKSLSLSPGK
As for B7, the ScFv-Fc/VhH-Fc heterodimer (%) in [13] worked out at 86%; in data set [14], 61%.

B8: ScFv-Fc fusion protein chain A with T366W + K409A + Y349D (protein)
chain: EVQLLESGGGVVQPGRSLRLSCIASGFTFSSYPMTWVRQAPGKGLEWVASISYDGSYKYKADSMKGRLTISRDNSKNTLYLEMNSLTAEDTAVYYCARTAFFNAYDFWGQGTLVTVSSASTKGPSVGGGGSGGGGSEIVMTQSPATLSVSPGERATLSCRASQSVRSNLAWYQQKPGQAPRLLIYAASTRATGIPARFSGSGSGTEFTLTISSLQSEDFAVYYCQQYNEWFRTSGQGTKVEIKRDKTHTCPPCPAPELLGGPSVFLFPPKPKDTLMISRTPEVTCVVVDVSHENPEVKFNWYVDGVEVHNAKTKPREEQYNSTYRVVSVLTVLHQDWLNGKEYKCKVSNKALPAPIEKTISKAKGQPREPQVDTLPPSRDELTKNQVSLWCLVKGFYPSDIAVEWESNGQPENNYKTTPPVLDSDGSFFLYSALTVDKSRWQQGNVFSCSVMHEALHNHYTQKSLSLSPGK
As to B8, the ScFv-Fc/VhH-Fc heterodimer (%) was found to be 60% in [1] and 49% in data set [2].
